Changes are numbered by the printed parent chain. Names and notes keep the numbering of the source. Read-outs that look alike come from different tables or passages of the source.
B1: J142-z73/L180-k (antibody, human IgG4 S228P, kappa)
heavy: QVQLVQSGSELKKPGASVKVSCKASGYTFTDNNMDWVRQAPGQGLEWMGDINTRSGGSIYNEEFQDRVTMTIDKSTGTAYMELSSLRSEDTAVYYCARRRSYGYYHDEWGEGTLVTVSSASTKGPSVFPLAPCSRSTSESTAALGCLVKDYFPEPVTVSWNSGALTSGVHTFPAVLQSSGLYSLSSVVTVPSSSLGTKTYTCNVDHKPSNTKVDKRVESKYGPPCPPCPAPEFLGGPSVFLFPPKPKDTLMISRTPEVTCVVVDVSQEDPEVQFNWYVDGVEVHNAKTKPREEQFNSTYRVVSVLTVLHQDWLNGKEYKCKVSNKGLPSSIEKTISKAKGQPREPQVYTLPPSQEEMTKNQVSLTCLVKGFYPSDIAVEWESNGQPENNYKTTPPVLDSDGSFFLYSRLTVDKSRWQEGNVFSCSVMHEALHNRFTQESLSLSP
light: DIQMTQSPSSLSASVGDRVTITCKASRNIERNLAWYQQKPGQAPELLIYSASRKESGVPDRFSGSRYGTDFTLTISSLQPEDLATYYCQQYYSPPLTFGGGTKVEIKRTVAAPSVFIFPPSDEQLKSGTASVVCLLNNFYPREAKVQWKVDNALQSGNSQESVTEQDSKDSTYSLSSTLTLSKADYEKHKVYACEVTHQGLSSPVTKSFNRGEC
notes: also called homomeric antibody against FX
B2: J300-z107/L210-k (antibody, human IgG4 S228P, kappa)
heavy: B1 heavy with T69I, I72V, G77D, Y95H, R100K, H106L, K198Q, F295Y, R408K, F435Y
light: B1 light with L83I, Y92S
notes: z107 carries H435R; also called homomeric antibody against FX
B3: GpH7-TA7/GpH7-B78/GpL16-k0 (antibody, human IgG1, kappa)
heavy 1: QVQLVQSGAEVKKPGASVTVSCKASGYTFTDYEMHWIRQPPGEGLEWIGAIDPKTGDTAYSESFQDRVTLTADKSTSTAYMELSSLTSEDTAVYYCTRFYSYTYWGQGTLVTVSSASTKGPSVFPLAPSSKSTSGGTAALGCLVKDYFPEPVTVSWNSGALTSGVHTFPAVLQSSGLYSLSSVVTVPSSSLGTQTYICNVNHKPSNTKVDKKVEPKSCDKTHTCPPCPAPEYLWGPSVFLFPPKPKDTLMISRTPEVTCVVVDVSHEDPEVKFNWYVDGVEVHNAKTKPREEQYNATYRVVSVLTVLHQDWLNGKEYKCKVSNKALPAPIEKTISKAKGQPREPQVYTLPPSRKELTKNQVSLTCLVKGFYPSDIAVEWESNGQPENNYKTTPPVLDSDGSFFLYSKLTVDKSRWQQGNVFSCSVMHEALHNRYTQKSLSLSP
heavy 2: B3 heavy 1 with Y232L, W234G, S237D, A296S, A328L, I330E, K354D, R433H, K437E
light: DIVMTQSPLSLPVTPGEPASISCQASESLVHSNRNTYLHWYLQKPGQSPQLLIYKVSNRFSGVPDRFSGSGSGTDFTLKISRVEAEDVGVYYCSQNTHVPPTFGQGTKVEIERTVAAPSVFIFPPSDEQLKSGTASVVCLLNNFYPREAKVQWKVDNALQSGNSQESVTEQDSKDSTYSLSSTLTLSKADYEKHKVYACEVTHQGLSSPVTKSFNRGEC
notes: Heterodimerized anti-glypican-3 IgG1 variant: L234Y/G236W/S298A in one H chain, S239D/A330L/I332E in the other
B4: GpH7-TA7/GpH7-TA50/GpL16-k0 (antibody, human IgG1, kappa)
heavy 1: B3 heavy 1
heavy 2: B3 heavy 1 with Y232L, W234G, S237D, A296S, A328L, I330E, K332G, K354D, R433H, K437E
light: B3 light
notes: Heterodimerized anti-glypican-3 IgG1 antibody; also called TA7/TA50
B5: GpH7-TA22/GpH7-B78/GpL16-k0 (antibody, human IgG1, kappa)
heavy 1: B3 heavy 1 with S237D
heavy 2: B3 heavy 1 with Y232L, W234G, S237D, A296S, A328L, I330E, K354D, R433H, K437E
light: B3 light
notes: Heterodimerized anti-glypican-3 IgG1 variant
B6: GpH7-TA40/GpH7-B78/GpL16-k0 (antibody, human IgG1, kappa)
heavy 1: B3 heavy 1 with K332G
heavy 2: B3 heavy 1 with Y232L, W234G, S237D, A296S, A328L, I330E, K354D, R433H, K437E
light: B3 light
notes: Heterodimerized anti-glypican-3 IgG1 antibody; K334G is in the same H chain as L234Y/G236W/S298A; also called TA40/B78

Experiments:
[1] = biological target: T1, Protein A (UniProt P38507 37-327); assay: rProtein A Sepharose column, stepwise pH elution; fractions analysed by cation exchange chromatography
T1 construct: bought resin; construct not described; also called rProtein A Sepharose Fast Flow

[2] = biological target: T2, FcγRIIIa extracellular domain with C-terminal His tag (human, UniProt P08637 17-208); assay: SPR (Biacore), ratio of KD values for FcγRIIIa
T2 construct: extracellular domain; also called FcgRIIIa; CD16A

[3] = biological target: T2, FcγRIIIa extracellular domain with …; assay: SPR (Biacore), ratio of KD values for FcγRIIIa; remark: listed apart in the source
Description: (§1) Analysis of interaction between objective antibody and the FcγR was carried out using Biacore T100 (GE Healthcare). HBS-EP+ (GE Healthcare) was used as the running buffer, and the measurement temperature was set to 25° C. Chips produced by immobilizing the antigen peptide by the amine coupling method to a Series S Sencor Chip CM5 (GE Healthcare), or alternatively, chips produced by allowing preliminarily biotinylated antigen peptides to interact with and immobilize onto a Series S Sensor Chip SA (certified) (GE Healthcare) were used. Antibodies of interest were captured onto an antigen peptide-immobilized chip, and allowed to interact to each FcγR diluted with running buffer. To regenerate and repeatedly use the chip, the antibodies captured on the chip were washed off by reacting 10 mM glycine-HCl, pH 1.5.

[4] = biological target: T2, FcγRIIIa extracellular domain with …; assay: SPR (Biacore), ratio of KD values for FcγRIIIa; remark: listed apart in the source
Description: (§2) First, it was considered which H chain should be introduced with Y296W. GpH7-TA52 (SEQ ID NO: 44) resulting from the introduction of the mutation Y296W into GpH7-TA7 was constructed, and expressed and prepared in combination with GpH7-B78 according to the method described in Reference Example 1. Furthermore, GpH7-TA58 (SEQ ID NO: 45) resulting from the introduction of Y296W into GpH7-B78 was constructed, and expressed and prepared in combination with GpH7-TA22 according to the method described in Reference Example 1. To assess the effects of combinations with Y296W, the prepared antibodies were compared for the FcγRIIIa-binding activity according to the method described in Reference Example 2 (Table 16).
as §1

[5] = biological target: T2, FcγRIIIa extracellular domain with …; assay: SPR (Biacore), antibody captured, FcγRIIIa as analyte, 1:1 Langmuir kinetic fit
Summary of the method: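 Biacore T100 at 25° C in HBS-EP+; antibodies captured on antigen-peptide chips (amine-coupled CM5 or biotinylated peptide on SA), with FcγR in running buffer flowed over.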

[6] = biological target: T2, FcγRIIIa extracellular domain with …; assay: as above; remark: listed apart in the source
Description: as §1
(§3) The FcγR-binding activity of each antibody was assessed primarily using as an indicator the FcγR-binding activity and dissociation constant for FcγR.

[7] = biological target: T2, FcγRIIIa extracellular domain with …; assay: as above; remark: listed apart in the source
Description: as §2, §1, §3

[8] = biological target: T3, FcγRIIIa (human, UniProt P08637 17-208); assay: SPR (Biacore); KD of GpH7-TA7/GpH7-B78/GpL16-k0 for FcγRIIIa divided by the KD of this antibody
T3 construct: extracellular domain; The protein is soluble, His-tagged, and was expressed in FreeStyle293 cells; also called FcgRIIIa; CD16A; not shown: His tag attached to the C terminus
Description: (§4) Then, K334G was also assessed in the same manner. GpH7-TA40 (SEQ ID NO: 47) resulting from the introduction of K334G into GpH7-TA7 was constructed, and expressed and prepared in combination with GpH7-B78 according to the method described in Reference Example 1. Furthermore, GpH7-TA50 (SEQ ID NO: 48) resulting from the introduction of K334G into GpH7-B78 was constructed, and expressed and prepared in combination with GpH7-TA7 according to the method described in Reference Example 1. To assess the effect of combinations with K334G, the prepared antibodies were compared for the FcγRIIIa binding according to the method described in Reference Example 2 (Table 18).
as §1, with “To regenerate and repeatedly use the chip, the antibodies captured on the chip were washed off by reacting 10 mM glycine-HCl, pH 1.5.” left out

[9] = biological target: T3, FcγRIIIa; assay: SPR (Biacore T100); antibody captured on an antigen peptide chip, FcγRIIIa as analyte; 1:1 Langmuir kinetic fit
Description: as §4, §1

[10] = biological target: T2, FcγRIIIa extracellular domain with …; assay: SPR (Biacore), ratio of KD values for FcγRIIIa; remark: listed apart in the source
Description: (§5) Then, GpH7-TA54 (SEQ ID NO: 46) resulting from the introduction of Y296W into GpH7-TA22 was constructed, and expressed and prepared in combination with GpH7-B78 according to the method described in Reference Example 1. Furthermore, GpH7-TA58 (SEQ ID NO: 45) resulting from the introduction of Y296W into GpH7-B78 was constructed, and expressed and prepared in combination with GpH7-TA22 according to the method described in Reference Example 1. To assess the effect of combination with Y296W, the prepared antibodies were compared for the FcγRIIIa-binding activity according to the method described in Reference Example 2 (Table 17).
as §1

[11] = biological target: T2, FcγRIIIa extracellular domain with …; assay: SPR (Biacore), antibody captured, FcγRIIIa as analyte, 1:1 Langmuir kinetic fit; remark: listed apart in the source
Description: as §5, §1, §3

T3 sequence (P08637 17-208): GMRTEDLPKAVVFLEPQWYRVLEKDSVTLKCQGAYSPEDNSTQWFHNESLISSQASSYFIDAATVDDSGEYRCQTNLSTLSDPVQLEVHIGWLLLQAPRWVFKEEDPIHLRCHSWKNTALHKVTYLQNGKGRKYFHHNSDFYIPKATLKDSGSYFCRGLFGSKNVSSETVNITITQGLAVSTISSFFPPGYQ
T2 sequence (P08637 17-208): as above

Row | Binder | binding result [1] | KD ratio (KD of GpH7-TA7/GpH7-B78/GpL16-k0 divided by KD of the antibody) [3] | Kd [6] | KD ratio [8] | Kd [9] | also measured
1 | B1 | no binding |  |  |  |  | 
2 | B2 | no binding |  |  |  |  | 
3 | B3 |  | 1 fold | 4.1 nM |  |  | KD ratio 1 (KD of GpH7-G1d/GpL16-k0 divided by KD of the antibody) [2]: 261 fold; KD ratio 2 (KD of GpH7-A5/GpH7-B3/GpL16-k0 divided by KD of the antibody) [2]: 347 fold; KD ratio (KD of GpH7-TA7/GpH7-B78/GpL16-k0 divided by KD of the antibody) [4]: 1 fold; Kd [5]: 4.7 nM; Kd [7]: 4.1 nM
4 | B4 |  |  |  | 1.2 | 3.4 nM | 
5 | B5 |  | 3.2 fold | 1.3 nM |  |  | KD ratio (KD of GpH7-TA22/GpH7-B78/GpL16-k0 divided by KD of the antibody) [10]: 1 fold; Kd [11]: 1.3 nM
6 | B6 |  |  |  | 0.5 | 7.5 nM | 

Source: patent US20180155451A1 (published 2018)
